Measured values taken from patent US20240010754A1 (JIANGSU HENGRUI MEDICINE, published 2024).
Changes are numbered by the printed parent chain. Names and notes keep the numbering of the source.

B1: TJ030-PR1102 (bispecific antibody, human IgG1, kappa, L234A L235A)
heavy 1: not shown
light 1: DIVMTQTPLSLPVTPGEPASISCRSSQSLVHSTGNTYLEWYLQKPGQSPQLLIYKVSNRFSGVPDRFSGSGSGTDFTLKISRVEAEDVGVYYCFQGSHVPYTFGGGTKVEIKRTVAAPSVFIFPPSDEQLKSGTASVVCLLNNFYPREAKVQWKVDNALQSGNSQESVTEQDSKDSTYSLSSTLTLSKADYEKHKVYACEVTHQGLSSPVTKSFNRGEC
heavy 2: not shown
light 2: not shown
notes: 1+1 asymmetric knob-into-hole bispecific IgG1; knob on the PD-1 arm, hole on the CTLA-4 arm; tested after polishing purification; also called PD-1×CTLA-4 bispecific antibody (F126C-S121C placed into the CTLA-4 arm)
B2: ERP2006-BS0012 (bispecific antibody, human IgG1, kappa, lambda)
heavy: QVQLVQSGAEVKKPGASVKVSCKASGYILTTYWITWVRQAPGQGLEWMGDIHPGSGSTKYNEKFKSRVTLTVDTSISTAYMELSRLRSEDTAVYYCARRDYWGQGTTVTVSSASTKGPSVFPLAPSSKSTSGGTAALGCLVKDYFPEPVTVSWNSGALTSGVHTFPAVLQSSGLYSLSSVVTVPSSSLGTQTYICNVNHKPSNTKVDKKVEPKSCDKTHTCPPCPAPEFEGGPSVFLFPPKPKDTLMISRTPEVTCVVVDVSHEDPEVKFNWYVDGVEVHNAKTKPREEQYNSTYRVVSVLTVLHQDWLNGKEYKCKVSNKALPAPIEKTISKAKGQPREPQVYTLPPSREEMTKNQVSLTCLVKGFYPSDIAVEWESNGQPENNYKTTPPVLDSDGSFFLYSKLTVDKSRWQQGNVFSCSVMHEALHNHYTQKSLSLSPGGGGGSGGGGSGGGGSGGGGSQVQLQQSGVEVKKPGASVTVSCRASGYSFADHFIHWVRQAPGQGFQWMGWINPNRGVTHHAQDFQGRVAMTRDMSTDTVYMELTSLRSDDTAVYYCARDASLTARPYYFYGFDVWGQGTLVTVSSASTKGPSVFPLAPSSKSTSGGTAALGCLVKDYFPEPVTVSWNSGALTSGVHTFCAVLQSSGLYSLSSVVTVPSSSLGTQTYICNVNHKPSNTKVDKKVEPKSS
light 1: B1 light 1 with T7S, S28N, L29I, H31N, T33Q, S57T, G96A, H98L, Y101W
light 2: DIQMTQSPSSVSASVGDRVTITCRASQGISSWLAWYQQKPGKAPKLLIYAASSLQSGVPSRFSGSGSGTDFTLTISSLQPEDFATYYCQQANSFPPAFGQGTKVEIKGQPKAAPSVTLFPPSSEELQANKATLVCLISDFYPGAVTVAWKADSSPVKAGVETTTPCKQSNNKYAASSYLSLTPEQWKSHRSYSCQVTHEGSTVEKTVAPTESS
notes: 2+2 symmetric bispecific: [CD40 VH-CH1]-Fc-linker-[FAP VH-CH1] heavy chain with two kinds of light chain; also called FAP×CD40 bispecific antibody
B3: TJ030-PR1108 (bispecific antibody, human IgG1, kappa, L234A L235A)
heavy 1: not shown
light 1: B1 light 1 with T169C, C219A
heavy 2: not shown
light 2: not shown
notes: 1+1 asymmetric knob-into-hole bispecific IgG1; knob on the PD-1 arm, hole on the CTLA-4 arm; tested after polishing purification; also called PD-1×CTLA-4 bispecific antibody (F170C-T164C placed into the PD-1 arm)
B4: TJ030-PR1106 (bispecific antibody, human IgG1, kappa, L234A L235A)
heavy 1: not shown
light 1: B1 light 1 with S126C, C219A
heavy 2: not shown
light 2: not shown
notes: 1+1 asymmetric knob-into-hole bispecific IgG1; knob on the PD-1 arm, hole on the CTLA-4 arm; tested after polishing purification; also called PD-1×CTLA-4 bispecific antibody (F126C-S121C placed into the PD-1 arm)
B5: TJ030-PR1104 (bispecific antibody, human IgG1, kappa, L234A L235A)
heavy 1: not shown
light 1: B1 light 1
heavy 2: not shown
light 2: not shown
notes: 1+1 asymmetric knob-into-hole bispecific IgG1; knob on the PD-1 arm, hole on the CTLA-4 arm; tested after polishing purification; also called PD-1×CTLA-4 bispecific antibody (F170C-T164C placed into the CTLA-4 arm)
B6: parent FAP monoclonal antibody Ab10 (antibody, V domains shown)
VH: QVQLQQSGVEVKKPGASVTVSCRASGYSFADHFIHWVRQAPGQGFQWMGWINPNRGVTHHAQDFQGRVAMTRDMSTDTVYMELTSLRSDDTAVYYCARDASLTARPYYFYGFDVWGQGTLVTVSS
VL: DIQMTQSPSSVSASVGDRVTITCRASQGISSWLAWYQQKPGKAPKLLIYAASSLQSGVPSRFSGSGSGTDFTLTISSLQPEDFATYYCQQANSFPPAFGQGTKVEIK
notes: also called AblO
B7: ERP2006-BS0015 (bispecific antibody)
heavy: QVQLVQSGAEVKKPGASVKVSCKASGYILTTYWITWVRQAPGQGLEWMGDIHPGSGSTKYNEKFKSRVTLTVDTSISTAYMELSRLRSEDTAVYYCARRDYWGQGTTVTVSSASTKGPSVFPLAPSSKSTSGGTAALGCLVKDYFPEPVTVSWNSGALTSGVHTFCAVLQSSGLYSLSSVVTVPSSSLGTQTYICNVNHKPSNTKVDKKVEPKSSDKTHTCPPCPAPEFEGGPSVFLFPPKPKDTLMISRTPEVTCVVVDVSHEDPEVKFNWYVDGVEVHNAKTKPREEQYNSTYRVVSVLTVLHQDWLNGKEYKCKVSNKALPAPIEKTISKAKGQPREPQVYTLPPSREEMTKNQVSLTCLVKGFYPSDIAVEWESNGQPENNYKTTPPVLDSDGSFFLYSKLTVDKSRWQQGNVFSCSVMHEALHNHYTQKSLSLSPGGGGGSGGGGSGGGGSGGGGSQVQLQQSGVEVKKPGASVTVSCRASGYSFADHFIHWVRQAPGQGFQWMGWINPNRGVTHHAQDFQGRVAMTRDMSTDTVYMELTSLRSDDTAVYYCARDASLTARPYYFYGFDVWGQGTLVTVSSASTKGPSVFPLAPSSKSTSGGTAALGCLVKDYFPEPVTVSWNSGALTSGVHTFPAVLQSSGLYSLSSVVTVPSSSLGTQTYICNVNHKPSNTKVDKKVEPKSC
light 1: DIVMTQSPLSLPVTPGEPASISCRSSQNIVNSQGNTYLEWYLQKPGQSPQLLIYKVTNRFSGVPDRFSGSGSGTDFTLKISRVEAEDVGVYYCFQASLVPWTFGGGTKVEIKGQPKAAPSVTLFPPSSEELQANKATLVCLISDFYPGAVTVAWKADSSPVKAGVETTTPCKQSNNKYAASSYLSLTPEQWKSHRSYSCQVTHEGSTVEKTVAPTESS
light 2: DIQMTQSPSSVSASVGDRVTITCRASQGISSWLAWYQQKPGKAPKLLIYAASSLQSGVPSRFSGSGSGTDFTLTISSLQPEDFATYYCQQANSFPPAFGQGTKVEIKRTVAAPSVFIFPPSDEQLKSGTASVVCLLNNFYPREAKVQWKVDNALQSGNSQESVTEQDSKDSTYSLSSTLTLSKADYEKHKVYACEVTHQGLSSPVTKSFNRGEC
notes: as for B2

Assays:
human PD-1 [1] = molecular target: T1, human PD-1 (human, UniProt Q15116 25-288); test: flow cytometry cell cross-linking (CHO-K1/PD-1 + HEK293/CTLA-4 cells), antibody at 0.03 nM
T1 construct: whole, on cells; also called CHO-K1/PD-1
Protocol: (§1) The ability of PD-1×CTLA-4 bispecific antibodies to co-bind to cells highly expressing human PD-1 and human CTLA-4 after polishing purification was determined by flow cytometry. First, HEK293 cells were transiently transfected with human CTLA-4 plasmids, and 24 h after the transfection, the HEK293 cells highly expressing CTLA-4 were labeled with Cell Trace Far red (Invitrogen, C34564), and the CHO-K1/PD-1 stably transfected strain was labeled with Cell Trace Violet (Invitrogen, C34557). […] The plate was incubated at 4° C. in a dark place for 1 h. The double-positive cell percentage of HEK293/CTLA-4 of CTLA-4 and CHO-K1/PD-1 was determined by flow cytometry.
(§2) According to Example 1.4, the ability of each of the PD-1×CTLA-4 bispecific antibodies TJ030-PR1102 (F126C-S121C was placed into the CTLA-4 arm), TJ030-PR1104 (F170C-T164C was placed into the CTLA-4 arm), TJ030-PR1106 (F126C-S121C was placed into the PD-1 arm) and TJ030-PR1108 (F170C-T164C was placed into the PD-1 arm) to co-bind to cells highly expressing human PD-1 and human CTLA-4 after polishing purification was determined by flow cytometry, with CTLA-4 monoclonal antibody and IgG as negative controls. […] Such cross-linking of cells occurred in bispecific antibody molecule incubation only rather than monoclonal antibody or IgG1 incubation.

human PD-1 [2] = molecular target: T1, human PD-1; test: flow cytometry cell cross-linking (CHO-K1/PD-1 + HEK293/CTLA-4 cells), antibody at 30 nM
Protocol: (§3) The ability of PD-1×CTLA-4 bispecific antibodies to co-bind to cells highly expressing human PD-1 and human CTLA-4 after polishing purification was determined by flow cytometry. First, HEK293 cells were transiently transfected with human CTLA-4 plasmids, and 24 h after the transfection, the HEK293 cells highly expressing CTLA-4 were labeled with Cell Trace Far red (Invitrogen, C34564), and the CHO-K1/PD-1 stably transfected strain was labeled with Cell Trace Violet (Invitrogen, C34557). The cells were added to a 96-well U-bottom plate (Costar, 3599) at 2E5 cells/well, and the test antibody was diluted to 100 nM, 10 nM, 1 nM, 0.1 nM and 0.01 nM and added to the 96-well U-bottom plate at 50 μL/well, making a total volume of 150 μL/well. The plate was incubated at 4° C. in a dark place for 1 h. The double-positive cell percentage of HEK293/CTLA-4 of CTLA-4 and CHO-K1/PD-1 was determined by flow cytometry.
as §2

human PD-1 [3] = molecular target: T1, human PD-1; test: flow cytometry cell cross-linking (CHO-K1/PD-1 + HEK293/CTLA-4 cells), antibody at 100 nM
Protocol: as §3, §2

human PD-1 [4] = molecular target: T1, human PD-1; test: flow cytometry cell cross-linking (CHO-K1/PD-1 + HEK293/CTLA-4 cells), antibody at 10 nM
Protocol: as §3, §2

human PD-1 [5] = molecular target: T1, human PD-1; test: flow cytometry cell cross-linking (CHO-K1/PD-1 + HEK293/CTLA-4 cells), antibody at 0.1 nM
Protocol: as §3, §2

human PD-1 [6] = molecular target: T1, human PD-1; test: flow cytometry cell cross-linking (CHO-K1/PD-1 + HEK293/CTLA-4 cells), antibody at 1 nM
Protocol: as §3, §2

human PD-1 [7] = molecular target: T1, human PD-1; test: flow cytometry cell cross-linking (CHO-K1/PD-1 + HEK293/CTLA-4 cells), antibody at 0.3 nM
Protocol: as §1, §2

human PD-1 [8] = molecular target: T1, human PD-1; test: flow cytometry cell cross-linking (CHO-K1/PD-1 + HEK293/CTLA-4 cells), antibody at 3 nM
Protocol: as §3, §2

human FAP = molecular target: T2, human FAP (human, UniProt Q12884 1-760); test: FACS binding to CHO/FAP cells
T2 construct: whole, on cells; also called CHO/FAP; Flp-In CHO/FAP
T2 sequence (looked up): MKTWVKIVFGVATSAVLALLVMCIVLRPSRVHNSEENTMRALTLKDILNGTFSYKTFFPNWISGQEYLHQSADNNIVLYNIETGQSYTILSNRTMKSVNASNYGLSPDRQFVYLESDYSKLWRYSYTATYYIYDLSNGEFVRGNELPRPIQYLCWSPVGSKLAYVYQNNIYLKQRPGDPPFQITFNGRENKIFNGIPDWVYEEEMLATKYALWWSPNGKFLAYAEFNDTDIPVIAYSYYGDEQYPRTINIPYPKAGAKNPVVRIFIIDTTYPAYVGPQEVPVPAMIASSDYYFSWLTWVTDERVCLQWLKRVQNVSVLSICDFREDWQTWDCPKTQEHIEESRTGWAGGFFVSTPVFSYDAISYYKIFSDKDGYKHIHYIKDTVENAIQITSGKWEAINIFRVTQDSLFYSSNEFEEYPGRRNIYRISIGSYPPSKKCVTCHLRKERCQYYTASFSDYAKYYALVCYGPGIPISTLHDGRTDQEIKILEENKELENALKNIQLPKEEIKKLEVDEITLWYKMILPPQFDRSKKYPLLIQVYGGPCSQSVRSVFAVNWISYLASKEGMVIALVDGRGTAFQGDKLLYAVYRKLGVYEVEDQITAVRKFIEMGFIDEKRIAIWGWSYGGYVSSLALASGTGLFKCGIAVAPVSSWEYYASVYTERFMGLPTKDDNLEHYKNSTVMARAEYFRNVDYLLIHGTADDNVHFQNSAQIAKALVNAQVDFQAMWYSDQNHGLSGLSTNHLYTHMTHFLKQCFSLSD
Protocol: (§4) CHO cells stably expressing human FAP (i.e., CHO/FAP cells) and HEK293 cells 48 hours after transient transfection (i.e., HEK293/CD40 cells) in the logarithmic growth phase were collected by centrifugation, washed with PBS and then centrifuged. The cells were plated at 2E5 cells/100 μL/well and centrifuged at 400 g for 5 min Different concentrations of test antibody were added. The cells were incubated on ice for 1 h, washed with PBS and centrifuged at 400 g for 5 min The goat anti-human secondary antibody Alexa Fluor 488 with a fluorophore was added, and the cells were stained in an ice bath for 1 h, washed twice with PBS and then assayed on a flow cytometer.
(§5) The bispecific antibodies ERP2006-BS0012 and ERP2006-BS0015 have similar affinity for FAP to the parent FAP monoclonal antibody AblO and similar affinity for CD40 to the parent CD40 monoclonal antibody 9E5-25.

human CD40 = molecular target: T3, human CD40 (human, UniProt P25942 21-277); test: FACS binding to HEK293/CD40 cells
T3 construct: whole, on cells; also called HEK293/CD40; HEK-Blue CD40L cell
Protocol: as §4, §5

T1 sequence (Q15116 25-288): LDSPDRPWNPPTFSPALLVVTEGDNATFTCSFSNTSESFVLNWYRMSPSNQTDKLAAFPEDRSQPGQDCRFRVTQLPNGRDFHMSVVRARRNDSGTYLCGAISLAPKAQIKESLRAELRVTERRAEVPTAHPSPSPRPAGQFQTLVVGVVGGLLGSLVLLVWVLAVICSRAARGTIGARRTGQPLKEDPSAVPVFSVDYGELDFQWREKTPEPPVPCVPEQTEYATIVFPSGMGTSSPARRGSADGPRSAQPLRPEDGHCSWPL
T3 sequence (P25942 21-277): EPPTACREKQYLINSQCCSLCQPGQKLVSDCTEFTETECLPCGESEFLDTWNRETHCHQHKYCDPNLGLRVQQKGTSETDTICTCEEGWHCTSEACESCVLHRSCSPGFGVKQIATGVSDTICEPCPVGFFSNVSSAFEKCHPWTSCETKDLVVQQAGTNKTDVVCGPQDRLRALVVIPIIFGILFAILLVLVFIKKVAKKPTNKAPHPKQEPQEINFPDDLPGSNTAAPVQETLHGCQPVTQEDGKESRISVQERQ

proportion of double-positive cells (human PD-1 [1]) [%] | proportion of double-positive cells (human PD-1 [2]) [%] | proportion of double-positive cells (human PD-1 [3]) [%] | proportion of double-positive cells (human PD-1 [4]) [%] | proportion of double-positive cells (human PD-1 [5]) [%] | proportion of double-positive cells (human PD-1 [6]) [%] | proportion of double-positive cells (human PD-1 [7]) [%] | proportion of double-positive cells (human PD-1 [8]) [%] | EC50 (human FAP) [pM] | EC50 (human CD40) [pM] | binding result (human FAP) | Binder
8.87 | 26.7 | 22.2 | 32.4 | 11.8 | 25.1 | 20.7 | 32.2 | – | – | – | B1
– | – | – | – | – | – | – | – | 349 | 471 | – | B2
11.8 | 31.4 | 27.2 | 37.7 | 17 | 33.2 | 24.2 | 35.3 | – | – | – | B3
10.9 | 33.1 | 23.9 | 38.1 | 19.1 | 34.7 | 26.3 | 37.4 | – | – | – | B4
10.4 | 32.1 | 25.4 | 34.8 | 18.2 | 30.5 | 25.3 | 35.8 | – | – | – | B5
– | – | – | – | – | – | – | – | – | – | binds | B6
– | – | – | – | – | – | – | – | 336 | 456 | – | B7
